One block for each binder: values may come before it.
Tests used:
Mouse (NSO) = test: binding affinity
Cyno Monkey (HEK) = test: binding affinity
[1] = target: T1, recombinant human IL-25 (R&D Systems) (human, UniProt Q9H293 33-177); test: binding affinity
T1 chain: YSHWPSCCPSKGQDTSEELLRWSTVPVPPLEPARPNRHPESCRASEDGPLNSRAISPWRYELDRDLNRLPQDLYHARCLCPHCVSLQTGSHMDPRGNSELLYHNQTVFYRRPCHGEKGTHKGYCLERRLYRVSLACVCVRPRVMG

mouse IL-25 (NS0) = test: SPR
[2] = target: T1, recombinant human IL-25 (R&D Systems); test: SPR
ABM126 = test: binding affinity
ABM126.4 = test: binding affinity
ABM109.2 = test: binding affinity
hABM125.9 = test: SPR
hABM125.10 = test: SPR
ABM 109 = test: SPR
ABM 109.2 = test: SPR

Kd (hABM125.9): 0.061 nM | Kd (hABM125.10): 0.374 nM
B6: human IL-25 (HEK) (ligand)
chain: T1 chain

Kd (ABM 109): 0.004 nM | Kd (ABM 109.2): 0.024 nM
B7: human IL-25 (ligand)
chain: T1 chain

Second part, the binder before the results:

B1: ABM125.38 (antibody, V domains shown)
VH: QVTLKESGPTLVKPTQTLTLTCTFSGFSLSTSGMGVGWIRQPPGKALEWLAHIWWDDVKRYNPSLKSRLTITKDTSGSQVVLTMTNMDPVDTATYYCARTLPHFHDYWGQGTTLTVSS
VL: DIQMTQSPSTLSASVGDRVTITCRASSSVSYMYWYQQKPGKAPKPLIYRTSNLASGVPSRFSGSGSGTEYTLTISSLQPDDFATYYCKQYHSYPPTWTFGGGTKVEIKR
Kd (Mouse (NSO)): 0.096 nM | Kd (Cyno Monkey (HEK)): 0.235 nM

B2: LNR125.38 (antibody, V domains shown)
VH: B1 VH
VL: B1 VL
Kd [1]: 0.051 nM

B3: ABM125 (antibody, V domains shown)
VH: QVTLKVSGPGILQPSQTLSLTCSFSGFSLNTSGMGVGWIRQPSGKGLEWLAHIWWDDVKRYNPALKSRLTISKDTSGSQVFLKIASVDTADTATYYCARTLPHFFDYWGQGTTLTVSS
VL: DIQMTQSPAIMSASPGEKVTISCRASSSVSYMYWYQQKSGSSPKPWIYRTSNLASGVPARFSGSGSGTSYSLTISSMEAEDAATYYCKQYHSYPPTWTFGGGTKLEIKR
modifications: N-glycosylation site in heavy chain CDR1 created by S29N, confirmed biophysically
Kd (mouse IL-25 (NS0)): 0.0073 nM | Kd (Mouse (NSO)): 0.168 nM | Kd (Cyno Monkey (HEK)): 0.17 nM

B4: ABM125 (Chimera) (antibody, V domains shown)
VH: B3 VH
VL: B3 VL
modifications: N-glycosylation site in heavy chain CDR1 created by S29N, confirmed biophysically
Kd [2]: 0.0053 nM | Kd [1]: 0.128 nM

B5: Human (HEK) (ligand)
chain: T1 chain
Kd (ABM126): 0.043 nM | Kd (ABM126.4): 0.024 nM | Kd (ABM109.2): 1 nM

— patent US20240400671A1 (published 2024)
